This assay concerns the target insulin receptor, endogenous in 3T3-L1 preadipocytes (UniProt P15208). Description: cell-based or functional assay.

Experimental findings from patent US20140364363A1 are described below.

UniProt P15208, sequence (P15208 28-1372 limits assumed): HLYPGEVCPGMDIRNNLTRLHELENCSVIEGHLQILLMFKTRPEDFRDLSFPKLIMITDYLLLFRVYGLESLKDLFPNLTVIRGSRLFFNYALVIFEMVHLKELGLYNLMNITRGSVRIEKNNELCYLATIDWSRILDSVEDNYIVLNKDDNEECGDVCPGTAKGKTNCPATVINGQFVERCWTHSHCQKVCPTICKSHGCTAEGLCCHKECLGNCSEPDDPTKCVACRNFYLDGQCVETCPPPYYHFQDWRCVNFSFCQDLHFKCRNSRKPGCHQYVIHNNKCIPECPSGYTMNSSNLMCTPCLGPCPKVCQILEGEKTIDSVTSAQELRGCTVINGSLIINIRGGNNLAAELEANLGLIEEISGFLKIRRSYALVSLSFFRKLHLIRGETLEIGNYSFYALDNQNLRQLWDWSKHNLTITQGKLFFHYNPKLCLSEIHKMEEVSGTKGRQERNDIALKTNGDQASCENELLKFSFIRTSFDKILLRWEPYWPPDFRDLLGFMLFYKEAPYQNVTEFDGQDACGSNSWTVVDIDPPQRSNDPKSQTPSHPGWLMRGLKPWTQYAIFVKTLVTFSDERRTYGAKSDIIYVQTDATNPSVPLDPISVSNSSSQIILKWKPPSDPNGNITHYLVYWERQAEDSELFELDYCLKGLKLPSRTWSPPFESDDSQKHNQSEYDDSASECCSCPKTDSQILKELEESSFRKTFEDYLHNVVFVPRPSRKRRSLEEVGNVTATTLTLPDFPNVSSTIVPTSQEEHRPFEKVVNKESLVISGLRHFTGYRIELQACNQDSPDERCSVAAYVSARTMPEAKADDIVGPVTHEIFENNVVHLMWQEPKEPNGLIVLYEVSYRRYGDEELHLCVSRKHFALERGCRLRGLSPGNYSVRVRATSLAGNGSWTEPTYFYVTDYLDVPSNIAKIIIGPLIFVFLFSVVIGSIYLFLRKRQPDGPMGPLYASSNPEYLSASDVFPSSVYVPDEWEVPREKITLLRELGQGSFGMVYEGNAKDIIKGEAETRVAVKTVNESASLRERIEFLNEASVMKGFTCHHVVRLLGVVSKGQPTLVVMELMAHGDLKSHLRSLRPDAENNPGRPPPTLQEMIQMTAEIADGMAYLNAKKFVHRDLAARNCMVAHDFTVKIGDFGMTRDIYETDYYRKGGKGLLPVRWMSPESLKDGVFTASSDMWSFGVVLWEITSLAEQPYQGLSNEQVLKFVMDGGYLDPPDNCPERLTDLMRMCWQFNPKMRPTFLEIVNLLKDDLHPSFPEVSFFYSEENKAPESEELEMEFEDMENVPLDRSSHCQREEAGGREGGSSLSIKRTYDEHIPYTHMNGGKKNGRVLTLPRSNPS

Regarding “native Gpc4 with HA-tag inserted after the signal peptide, stably overexpressed in 3T3-L1 cells (from UniProt P51655 19-529)”, the insulin-stimulated Akt-Ser473 peak phosphorylation, enhancement by overexpression was 140% and the insulin-stimulated ERK peak phosphorylation, enhancement by overexpression was 100%.

As to “Gpc4Δ529SAG531::HHHHHH (ΔGpc4), soluble mutant lacking the GPI anchor attachment site, with N-terminal 6xHis tag (from UniProt P51655 19-528; P51655 532-557)”, the insulin-stimulated Akt-Ser473 peak phosphorylation, enhancement by overexpression turned out to be 94% and the insulin-stimulated ERK peak phosphorylation, enhancement by overexpression was found to be 67%.
